Assay results taken from patent US20230270832A1, “MAGEA1 IMMUNOGENIC PEPTIDES, BINDING PROTEINS RECOGNIZING MAGEA1 IMMUNOGENIC PEPTIDES, AND USES THEREOF” (TScan Therapeutics, Inc., priority 2021, published 2023).

Assays:
[1] = target: T1, epitope from MAGEA1 presented by HLA C*07:02 (Homo sapiens, UniProt P10321+P43355, DEL298-309); experiment: Identification of MAGEA1-reactive TCRs from pool of TCR-transduced T cells (CD137/CD69 sorting, TCR sequencing); type: cell-based; details: target cells transduced with MAGEA1 90-mer
T1 construct: an individual 90-amino acid fragments representing the top-scoring MAGEA1 tile from the screen; expressed in transfected cells; host or cells: MHC monoallelic C*07:02 HEK293T cells, lentivirally transduced with the MAGEA1 90-mer
Excerpt: Ten orphan TCRs from this patient were pooled together to identify their cognate antigens using the genome-wide TargetScan technology. This screen identified MAGEA1 as a novel target. […] Note that the term “TCR32-39” may also be known as “TCR39” and the term “TCR32-41” may also be known as “TCR41”.
To identify the corresponding TCR from the pool of TCR-transduced T cells, Ml-IC monoallelic C*07:02 HEK293T cells engineered to express the MAGEA1 90mer were co-cultured with the pool of T cells at an E:T ratio of 1:1 for 16-24 hours. The T cells were mixed, collected by pipetting, and labeled with a CD137 microbead kit (Miltenyi) following the manufacturer's instructions. In brief, T cells were first stained with PE-labeled anti-CD137 and AF647-labeled anti-CD69 (BioLegend), washed, and then labeled with anti-PE microbeads. Labeled cells were enriched with an autoMACS® Pro separator (Miltenyi) and CD137 and CD69 double-positive cells were sorted on a MoFlo® Astrios™ Cell Sorter (Beckman Coulter). Genomic DNA was extracted from the sorted cells and the TCR expression cassette was PCR amplified and prepared for next generation sequencing (NGS).

[2] = tested on: cancer cells that express MAGEA1; experiment: T cell recognition assay on cancer cell lines; type: cell-based, human; details: IFNγ release, CD137/CD69 double-positive staining
Procedure: To detect reactivity to cancer cell lines, wild-type cancer cell lines were seeded in a 96-well flat bottom plate and rested overnight at 37° C. in 5% CO2. On the following day, T cells were thawed, washed in complete RPMI-1640 medium, and added to the wells for an effector to target (E:T) ratio of 1:1 for INFγ measurement or 1:4 for flow cytometry analysis of activation-induced markers. The co-culture was incubated overnight. Cells were then harvested by pipetting, transferred to V-bottom 96-well plates, and centrifuged at 2,000 rpm for 2 minutes. The supernatant was collected for IFNγ measurement using a human IFNγ 3rd generation single-plex assay (Protein Simple). For flow cytometry analysis (Cytoflex S™ instrument, Beckman Coulter), cell pellets were washed with FACS buffer (PBS, 0.5% BSA, 2 mM EDTA) and stained for activation-induced markers, including PE-conjugated anti-CD137 (Miltenyi), AF647-conjugated anti-CD69 (Biolegend), and BV421-conjugated anti-CD8 (BioLegend).
Cancer cell lines were purchased from ATCC (Manassas, Vα.) and HEK293T cells were originally from Takara Bio (Shiga, Japan). All media were supplemented with […], except U266B1 which required 15% FBS, and 1% penicillin and incubated at 37° C. in 5% CO2. A101D (high MAGE-A1 expresing cells; TPM: 359), A2058 (medium MAGE-A1 expresing cells; TPM: 128), HS294T, and HEK293T cells were maintained in complete DMEM. SK-MEL-5 was cultured in complete EMEM, whereas U266B1, NCIH1437 and 786-0 required complete RPMI. Untransduced cancer cells were maintained in preparation for the T cell recognition assay, and 10^6 cells of each cell line were introduced with Incucyte® NucLight™ Red lentivirus reagent (Sartorius, Gottingen, Germany) Positively-labeled cells were selected using 1.5 ug/mL of puromycin over 72 hours.

recognition of MAGEA1 epitope / identification as MAGEA1-reactive TCR ([1]; listed as TCR 39): hits
B1: TCR 32-39: T cell receptor recognizing MAGEA1 epitope presented by HLA-C*07:02; alpha TRAV29-DV5/TRAJ43, beta TRBV18/TRBJ2-7; wild type, HM and MGTM sequences listed (protein)
TCR alpha: DQQVKQNSPSLSVQEGRISILNCDYTNSMFDYFLWYKKYPAEGPTFLISISSIKDKNEDGRFTVFLNKSAKHLSLHIVPSQPGDSAVYFCAASAQNNDMRFGAGTRLTVKPNIQNPEPAVYQLKDPRSQDSTLCLFTDFDSQINVPKTMESGTFITDKCVLDMKAMDSKSNGAIAWSNQTSFTCQDIFKETNATYPSSDVPCDATLTEKSFETDMNLNFQNLLVMVLRILLLKVAGFNLLMTLRLWSS
TCR beta: NAGVMQNPRHLVRRRGQEARLRCSPMKGHSHVYWYRQLPEEGLKFMVYLQKENIIDESGMPKERFSAEFPKEGPSILRIQQVVRGDSAAYFCASSPSYEQYFGPGTRLTVTEDLRNVTPPKVSLFEPSKAEIANKQKATLVCLARGFFPDHVELSWWVNGKEVHSGVCTDPQAYKESNYSYCLSSRLRVSATFWHNPRNHFRCQVQFHGLSEEDKWPEGSPKPVTQNISAEAWGRADCGITSASYQQGVLSATILYEILLGKATLYAVLVSTLVVMAMVKRKNS
recognition of MAGEA1 epitope / identification as MAGEA1-reactive TCR ([1]; listed as HN-32-39): recognizing the same novel epitope from MAGEA1 presented by HLA C*07:02
recognition of cancer cells [2]: recognize cancer cells that express MAGEA1
recognition of cancer cells ([2]; listed as TCR 39): recognize
